The source of these data is PMC4135724 (Nature, 2014).

This data set deals with the molecule itself. Kind of data set: SEC. In general terms: Size exclusion chromatography separates by hydrodynamic size, large species first.

B1: Human E-Syt2 (residues 163-634), fragment comprising the SMP, C2A and C2B domains (domain or fragment, UniProt A0FGR8 191-662, looked up)
chain: DTERAEWLNKTVKHMWPFICQFIEKLFRETIEPAVRGANTHLSTFSFTKVDVGQQPLRINGVKVYTENVDKRQIILDLQISFVGNCEIDLEIKRYFCRAGVKSIQIHGTMRVILEPLIGDMPLVGALSIFFLRKPLLEINWTGLTNLLDVPGLNGLSDTIILDIISNYLVLPNRITVPLVSEVQIAQLRFPVPKGVLRIHFIEAQDLQGKDTYLKGLVKGKSDPYGIIRVGNQIFQSRVIKENLSPKWNEVYEALVYEHPGQELEIELFDEDPDKDDFLGSLMIDLIEVEKERLLDEWFTLDEVPKGKLHLRLEWLTLMPNASNLDKVLTDIKADKDQANDGLSSALLILYLDSARNLPSGKKISSNPNPVVQMSVGHKAQESKIRYKTNEPVWEENFTFFIHNPKRQDLEVEVRDEQHQCSLGNLKVPLSQLLTSEDMTVSQRFQLSNSGPNSTIKMKIALRVLHLEKRER
By stoichiometry N is commonly meant a count of units in the complex or per binding partner. With B1, the “stoichiometry N” value worked out at 2.
